Data taken from FireProtDB.

[1] = Rattus norvegicus, pH 8, 25 °C, Urea, Fluorescence, Tris-HCl 50 mM, MgCl2 4 mM, transition: 3, reversible: yes, structure 1QM4
[2] = Homo sapiens, pH 7.4, 25 °C, GdnHCl, CD, PBS, structure 1TIT
[3] = Homo sapiens, pH 7.5, Thermal, CD, Tris-HCl, NaCl, structure 1DXX
[4] = Bos taurus, pH 8, Thermal, DSC, HEPES 50mM, NaCl 150mM
[5] = Homo sapiens, pH 7.3, 25 °C, GdnHCl, Fluorescence, Na2HPO4/NaH2PO4 20 mM, structure 1TIT

S-adenosylmethionine synthase isoform type-1 R265H, P13444, sequence (P13444 whole entry R265H, canonical isoform): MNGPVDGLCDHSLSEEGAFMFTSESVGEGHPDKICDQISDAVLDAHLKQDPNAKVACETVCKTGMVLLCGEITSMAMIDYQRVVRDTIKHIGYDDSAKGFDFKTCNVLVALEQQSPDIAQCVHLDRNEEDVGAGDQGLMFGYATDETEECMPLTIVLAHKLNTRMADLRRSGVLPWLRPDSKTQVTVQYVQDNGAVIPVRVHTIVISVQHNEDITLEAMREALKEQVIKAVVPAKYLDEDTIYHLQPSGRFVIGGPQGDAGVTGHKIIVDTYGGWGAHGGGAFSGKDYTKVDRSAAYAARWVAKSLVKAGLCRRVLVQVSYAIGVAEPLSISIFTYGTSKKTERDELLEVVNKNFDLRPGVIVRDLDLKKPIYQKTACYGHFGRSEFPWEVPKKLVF
Peptidyl-prolyl cis-trans isomerase D wild type, P26882, sequence (P26882 whole entry): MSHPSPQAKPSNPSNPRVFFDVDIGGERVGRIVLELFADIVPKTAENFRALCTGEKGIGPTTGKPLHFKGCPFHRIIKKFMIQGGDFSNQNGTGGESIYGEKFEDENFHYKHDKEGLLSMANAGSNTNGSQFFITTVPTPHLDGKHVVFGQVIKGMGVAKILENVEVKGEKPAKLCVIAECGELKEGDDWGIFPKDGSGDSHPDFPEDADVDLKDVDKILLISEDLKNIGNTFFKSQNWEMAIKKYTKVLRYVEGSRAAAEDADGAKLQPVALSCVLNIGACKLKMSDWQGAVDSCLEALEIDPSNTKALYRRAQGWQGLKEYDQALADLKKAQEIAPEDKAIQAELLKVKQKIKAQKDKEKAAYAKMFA

## S-adenosylmethionine synthase isoform type-1 R265H, P13444
[1]
  denaturant m value: 1.15 kcal/mol/M
  denaturant midpoint (higher = more stable): 3.82 M
  unfolding free energy: 4.41 kcal/mol

## Titin L12717A, Q8WZ42
[2]
  ddG of mutation (higher = less stable): 2.67 kcal/mol

## Dystrophin, P11532 L427P
[3]
  Tm: 50 °C
  change of melting temperature, mutant - wild type (higher = more stable): -3.4 °C

## Titin F12749L, Q8WZ42
[2]
  ddG of mutation (higher = less stable): 3.06 kcal/mol

## Peptidyl-prolyl cis-trans isomerase D wild type, P26882
[4]
  Tm: 45.1 °C
  unfolding enthalpy (calorimetric): 165 kcal/mol

## Titin C12723S|C12739S, Q8WZ42 C12723S C12739S
[5]
  ddG of mutation (higher = less stable): -3.2 kcal/mol
  denaturant m value: 2.8 kcal/mol/M

## Tenascin, P24821 Y869F
Homo sapiens, pH 5, 25 °C, Urea, Fluorescence, Sodium acetate 50 mM, reversible: yes, structure 1TEN
  ddG of mutation (higher = less stable): -3.22 kcal/mol
